The values that follow come from US11813311B2, “Treatment and prevention of metabolic diseases” (Singapore Health Services PTE LTD., priority 2019, dated 2023).

Type in all cases: in vivo, mouse
The subject of data set [1] is mice with folate-induced kidney injury. The experiment in a line: Weight loss after folate-induced acute kidney injury. As for the experimental part:
Kidney injury was induced by IP injection of folic acid (180 mg/kg) in vehicle (0.3M NaHCO3) to 10-week old male mice; control mice were administered vehicle alone. Animals were sacrificed 28 days post-injection. Mice were intraperitoneally injected every 3 days with 20 mg/kg of anti-IL-11 antibody, anti-IL-11 RA antibody or identical concentration of IgG isotype control starting from 1 hour before folic acid administration until the mice were sacrificed.
In a second experiment kidney injury was induced as before by IP injection of folic acid. Mice were only treated with anti-IL-11 antibody or IgG control from 21 days after kidney injury. Animal weight was assessed before and after antibody treatment.

Data set [2] deals with mice with HFMCD-induced liver fibrosis. The experiment in a line: HFMCD fibrosis reversal with switch to normal chow plus antibody. Conditions: for regression of Erk activation: after removal of the metabolic stimulus; for reversal of hepatic collagen content: HFMCD 10 weeks then normal chow; for Mmp2 expression / Timp1 expression: mice with severe fibrosis. The protocol: FIGS. 21A to 21L. Inhibition of Il-11 signalling reverses NASH pathologies in preclinical models and HSC-to-myofibroblast transformation. (A) Schematic showing therapeutic dosing regime in NASH reversal experiment for data shown in (B-G). Mice were fed with WDF for 16 weeks to induce NASH and then treated with (10 mg/kg) X209 or IgG for 8 weeks while they were on continuous WDF feeding. (B) Total liver hydroxyproline content, the levels of (C) liver triglycerides, (D) serum ALT, (E), fasting blood glucose, (F) serum triglycerides, and (G) serum cholesterol in mice on NC and IgG- and X209-treated WDF (n≥5/group). (H) Schematic showing reversal experiment in which fibrosis was established by feeding mice HFMCD for 10 weeks and then replacing this with NC and initiating antibody (X203 and X209) therapy. Mice were euthanized at the indicated time points. (I) Total liver hydroxyproline content (dotted line represents the mean value of NC=0.93) and (J) relative mRNA expression of Mmp2/Timp1 at 1-, 3-, 6-weeks after concurrent metabolic intervention (diet switch) and X203, X209, or IgG treatment (n≥3/group). Quantification of ACTA2^+ve immunostaining (scale bars, 200 μm) following incubation (K) with TGFβ1 or (L) with PDGF, either prior to or after the addition of X203, X209, or IgG (n=5/group). (K-L) TGFβ1 (5 ng/ml), PDGF (20 ng/ml), IgG, X203 and, X209 (2 μg/ml). (B-G, K-L) Data are shown as box-and-whisker with median (middle line), 25th-75th percentiles (box) and min-max percentiles (whiskers); (I) data are shown as mean±s.d; (J) data are represented as line chart (mean) and transparencies indicate s.d. (B) Two-tailed Student's t-test (C-G,K-L) two-tailed, Tukey-corrected Student's t-test; (I-J) two-way ANOVA. FC: fold change; NC: normal chow; WDF: Western diet+15% (w/v) fructose; HFMCD: high fat methionine- and choline-deficient.
Furthermore, combination therapies may be beneficial for reversing fibrosis in NASH′. To address these points, severe liver fibrosis was established using HFMCD for 10 weeks, then converted mice to normal chow, mimicking a robust metabolic intervention, and initiated anti-IL-11 treatments in parallel (FIG. 21H).

Data set [3] can be described thus: Long-term high dose preclinical toxicology of X209 and X203. As to conditions: 10 mg/kg ×2/week, 5 months. The protocol:
FIGS. 19A to 19J. Anti-IL-11 therapies inhibit HSC-to-myofibroblasts transformation in an ERK dependent manner and have a favourable metabolic safety profile. (A) Dose-response curve and IC50 value of X203 and X209 and ([…] to 4 μg/ml; 4-fold dilution) in inhibiting MMP2 secretion by TGFβ1-stimulated HSCs. (B) ELISA of IL-11 secretion from HSCs stimulated with various NASH factors (n≥5/group). (C) Representative fluorescence images and quantification of ACTA2^+ve cells from HSCs treated with TGFβ1 and other NASH factors in the presence of IgG, X203, or X209 (scale bars, 100 μm and dotted line represents the median value of baseline). (D) Effects of X203 and X209 on PDGF- or CCL2-induced HSC invasion. (E) Western blots of p-ERK and ERK in HSC lysates stimulated IL-11 (upper panel) or with various NASH factors in the presence of IgG or X209 (bottom panel). (F) Representative fluorescence images and quantification of ACTA2^+ve cells in HSCs treated with IL-11 and important NASH factors in the presence of ERK/MEK inhibitors U0126 or PD98059 (scale bars, 100 μm and dotted line represents the median value of baseline). (A-F) TGFβ1 (5 ng/ml), IL-11 (5 ng/ml), PDGF (20 ng/ml), AngII (100 nM), bFGF (10 ng/ml), CM (5 ng/ml), H2O2 (0.2 mM), IgG, X203 and X209 (2 μg/ml), U0126 or PD98059 (10 μM); (A,C,E-F) 24 h; (B,D) 48 h. (G) Peripheral platelet counts, (H) serum ALT levels, (I), serum triglycerides levels, and (J) serum cholesterol levels from mice injected biweekly with 10 mg/kg of X203 and X209 for 5 months (n≥5/group). (B,D) Data are shown as mean±s.d; (C,F,G-J) data are shown as box-and-whisker with median (middle line), 25th-75th percentiles (box) and min-max percentiles (whiskers). (B,D,G-J) Two-tailed Dunnett's test; (C, F) two-tailed, Tukey-corrected Student's t-test. FC: fold change.
The published literature on IL-11 in the liver is limited but injection of high dose recombinant human IL-11 into rodents has been associated with protective effects^13,14 and there is confusion as to a role for IL-11 in platelets biology^25. To exclude safety issues, the inventors performed long-term (5 months) high dose (10 mg/kg×2/week) preclinical toxicology studies of X209 and X203 and observed no effect on serum ALT levels or platelets (FIG. 19G-19H). Consistent with the data in the Il11ra^−/− mice, anti-IL-11 therapies lowered, or trended towards lowering, serum lipid levels during this treatment period (FIGS. 19I-19J).

The mark [4] stands for this setting: 20 mg/kg every 3 days from 1 hour before folic acid.
Where [5] appears, read: after three weeks of antibody treatment.
The mark [6] stands for this setting: at six weeks of antibody treatment.

B1: X203: mouse anti-mouse IL-11 IgG (IgG1κ), neutralising; VH SEQ ID NO:22, VL SEQ ID NO:23 (antibody, V domains shown)
VH: EVQLQQSGPELVKPGASVKIPCKASGYTFTDYNMDWVKQSHGKSLEWIGDINPHNGGPIYNQKFTGKATLTVDKSSSTAYMELRSLTSEDTAVYYCARGELGHWYFDVWGTGTTVTVSS
VL: DIVLTQSPASLAVSLGQRATISCRASKSVSTSGYSYIHWYQQKPGQPPKLLIYLASNLDSGVPARFSGSGSGTDFTLNIHPVEEEDAATYYCQHSRDLPPTFGGGTKLEIK
modifications: Enx203 VH; Enx203 VL
With B1, in data set [1] (setting [4]), the body weight result is recorded as “returned to normal, or near normal, weight by 3 weeks later”. Further, the body weight result in data set [1] (treated from 21 days after kidney injury) is “started to regain weight upon initiation of treatment”. Also, in data set [2], the “regression of Erk activation” value is given as “accelerated”, the Mmp2 expression entry was “rapidly upregulated” and the Timp1 expression result is “downregulated”. Also, the “reversal of hepatic collagen content” value in data set [2] (setting [5]) stood at 18%. The “reversal of hepatic collagen content” value in data set [2] (setting [6]) is 37%. Also, in data set [3], the platelets entry is reported as “no effect” and the “serum ALT levels” value is “no effect”.

B2: X209: mouse anti-mouse IL-11Rα IgG (IgG1κ), neutralising; VH SEQ ID NO:24, VL SEQ ID NO:25 (antibody, V domains shown)
VH: QVQLQQPGAELVRPGSSVKLSCKASGYTFTNYWMHWLKQRPVQGLEWIGNIGPSDSKTHYNQKFKDKATLTVDKSSSTAYMQLNSLTSEDSAVYYCARGDYVLFTYWGQGTLVTVSA
VL: DIVLTQSPATLSLSPGERATLSCRASQSISNNLHWYQQKSHEAPRLLIKYASQSISGIPARFSGSGSGTDFTLSFSSLETEDFAVYFCQQSYSWPLTFGQGTKLEIK
modifications: Enx209 VH; Enx209 VL
With B2, the body weight entry in data set [1] (setting [4]) was “returned to normal, or near normal, weight by 3 weeks later”. In addition, in data set [2], the “regression of Erk activation” value is reported as “accelerated”, the Mmp2 expression entry was “rapidly upregulated” and the Timp1 expression result is on record as “downregulated”. Further, in data set [2] (setting [5]), the “reversal of hepatic collagen content” value is 24%. The “reversal of hepatic collagen content” value in data set [2] (setting [6]) is listed as 46%. Further, in data set [3], the platelets entry is “no effect” and the “serum ALT levels” value is “no effect”.
